In publication PMC4550891 one finds pKa data, which are given here for two substances.

What is called pKa is the pH at which an ionisable group is half protonated.

This series addresses Glu286 (UniProt position 286, FFGHPEVYIIV). In words: kinetics.

On to “Cytochrome c oxidase (aa3-type) Ser425Ala variant (subunit I) (Rhodobacter sphaeroides; S425A)”, for which the pKa (~22 °C, not stated (100 mM buffer), 100 mM buffer after 1:5 mixing: MES (pH 6, 6.5), HEPES (pH 7-8), BIS-TRIS propane (pH 7-9), CHES (pH 9, 9.5), CAPS (pH 10-11). Also 0.1 mM EDTA., Fully (four-electron) reduced CytcO reacting with 1 mM O2, P3 intermediate, detergent-solubilised, no membrane potential) is on record as more than 10.5.

Regarding “Cytochrome c oxidase (aa3-type), subunit I carries the titrating residue (Rhodobacter sphaeroides)”, the pKa (Reduced wild-type CytcO reacting with O2, P3->F3 transition, cited from earlier work) is 9.4.
